Among the data in article PMC3928614 are RNase activity (FRET-derepression assay) against concentration of autophosphorylated G547 IRE1α; activity from 50 nM, maximal, RNase activity (FRET derepression assay) of fully dephosphorylated GST-G547 IRE1α and stoichiometry N values, retold here.

Assay [1] deals with autophosphorylated G547 IRE1α (residues G547-L977, incubated with Mg/ATP) (human) (UniProt O75460).
Assay [2] concerns the target GST-G547 IRE1α (His-GST-tagged IRE1α residues G547-L977) (UniProt O75460).
For assay [3] the target is unchanged. The assay can be described thus: native gel or EMSA; native polyacrylamide gel of purified GST-G547 IRE1α and G547 IRE1α; conditions not given. (In general: A gel shift assay detects complexes by their altered migration in electrophoresis.)

The substance “autophosphorylated G547 IRE1α (residues G547-L977, incubated with Mg/ATP) (from UniProt O75460 547-977) (domain or fragment)” yielded an RNase activity (FRET-derepression assay) against concentration of autophosphorylated G547 IRE1α; activity from 50 nM, maximal at 350 nM in assay [1] of 114 nM.
A word on the stoichiometry N: it is a count of units in the complex or per binding partner. Consider “GST-G547 IRE1α (His-GST-tagged IRE1α residues G547-L977) (from UniProt O75460 547-977)”, for which, in assay [2], the RNase activity (FRET derepression assay) of fully dephosphorylated GST-G547 IRE1α at 25 nM, the lowest concentration tested (% of full activity) was determined as 70. In addition, the stoichiometry N in assay [3] turned out to be 2.
